Measured values from the RNAGym collection of RNA variant scans (doi:10.1073/pnas.2313332121).
Variants at the floor of the assay were thinned out.

B1: TPR 5TU (parent)
chain: GGAUCUUCUCGAUCUAACAAAAAAGACAAAUCUGCCACAAAGCUUGAGAGCAUCUUCGGAUGCAGAGGCGGCAGCCUUCGGUGGCGCGAUAGCGCCAACGUUCUCAACUAUGACACGCAAAACGCGUGCUCCGUUGAAUGGAGUUUAUCAUG

Variants of: B1
Experiment: polymerase ribozyme fitness, log enrichment relative to wild type (log ratio); higher = more active; in vitro selection for triplet polymerase activity
How it was run: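 The heterodimeric triplet polymerase ribozyme's subunits were each mutagenized into PCR-built libraries and transcribed. Every library was selected once, in triplicate, by annealing with a biotinylated primer, the partner subunit and triplets, incubating frozen at −7 °C, gel-excising extended constructs, capturing on streptavidin beads and running RT-PCR. Input and output libraries were Illumina-sequenced, with genotypes kept only at ≥10 input reads and ≥1 read per output. Fitness, from inverse-variance-weighted replicate averages, is the base-2 logarithm of genotype enrichment over wild-type enrichment.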

Variant	polymerase ribozyme fitness (log ratio)
GGAUCUUCUCGAUCUAACAAAAAAGACACCUCUGCCACAAAGCUUGAGAGCAUCUUCGGAUGCAAAGGCGGCAGCCUUCGGUGGCGCGAUAGUGCCAACGUUCUCAACUAUGACACGCAAAACGCGUGCUCCGUUAAAUGGAGUUUAUCAUG [A29C A30C G65A C93U G136A]	≤ -4.2
GGAUCUUCUCGAUCUAACAAAAAAUACAAAUCUGCCAUAAAGCUUGUGAGCAUCUGCGGAAGCACAGGCGGCAGCCUUGGGUGGCGCGAUAGCGCCAACGUUGUCAACUAUGACACGCAAAACGCGUGCUCCGAUGAAUGGAGUUUAUCAUG [G25U C38U A47U U56G U61A G65C C79G C103G U134A]	≤ -4.2
GGAUCUUCUCGAUCUAACAAAAAAGACAAAUCUGCCACAAAGCUUGAGAGCAUCUUCGGAUGCAGAGUCGGCAGCCUUCGGUGGCGCGAUAGCGUUAACGUUCUCAACUAUGCCACGCAAAACUCGUGCUCCGUUGAAUGGAGUUUAUCAUG [G68U C95U C96U A113C G124U]	≤ -4.2
GGAUCUUCUCGAUCUAACAAAAAAGACAAAUCUGCCACAAAGCUUGAGAGCAUCUUCGGAUGCAGAGGCGGCAGCCUUCGGUGGUGCGUUAGCGCCAACGUUCUUAACUAUGACACGCAAAACGCGUGCUCCGUUGAAUGGAGUUUAUCAUG [C85U A89U C105U]	0.517
GGAUCUUCUCGAUCUAACAAAAAAGACAAAUCUGCCACAAAGCUUGAGAGCAUCUUCGGAUGCAGAGGCGGCAGCCUUCGGUGGCGCGAGAGCGCCAACGUUCUCAACUAUGACACGCAAAACCCGUGCUCCGUUGAAUGGAGUUUAUCAUG [U90G G124C]	≤ -4.2
GGAUCUUCUCGAUCUAACAAAGAAGACAAAUCUGCCACAAAGCUUGAGAGCAUCUUCGGAUGCAGAGGCGGCAGCCUUCGGUGGGGCGAUAGCGCCAACGUUCUCAACUAUGACACGCAAAACGCGUGCUCCGUUGAAUGGAGUUUAUCGUG [A22G C85G A150G]	-3.09
GGAUCUUCUCGAUCUAACAAAAAAGACAAAUCUGCCACAAAGCUAGAGAGCAUCUUCGGAUGCAGAGGCGGCAGCCUUCGGUGGCGCGAUACCGCCAACGUUCUCAACUAUGACACGCAAAACGCGUGCUCCGUUGAAUGGAGUUUAUCAUG [U45A G92C]	-3.75
GGAUCUUCUCGAUCUAACAAAAAAGACAAAUCUGCCACAAAGCUUGCGAGCAUCUACGGGUGCAGAGGCGGCAGCCUUCGGUGGUGCGAUAGCGCUAACGUUCUCAACUAUGACACGCAAAACGCGUGCUCCGUUGAAUGGAGUUUAUCUUG [A47C U56A A60G C85U C96U A150U]	-0.791
GGAGCUUCUCGAUCUAACAAAAAAGACAAAUCUGCCACAAUGCUUGAGAGCAUCUUCGGAUGCAGAGGCGGCAGCCUUCGGUGGCGCGAUCGCGCCUACGUUCUCAACUAUGACACGCAAAACGCGUGCUCCGUUGAAUGGAGUUUAUCAUG [U4G A41U A91C A97U]	≤ -4.2
GGAUCUUCUCGAUCUAACAAAAAAGACAAAUUUGCCACAAAGCUUGAGAGCAUCUUCGGGUGCAGAGGCGGCAGCCUUCGGUGGCGCGAUAGCGCCAACGUUCUCAACUAUGACACGCAAAACGCGUGCUCCGUUGAAUGGGGUUUAUCAUG [C32U A60G A142G]	-3.31
GGUUCUUCUCGAUCUAACAAAAAAUAUAAAUCUGCAACAAAGCUUGAGAGCAUCUUCGGAUGCAGAGGCGGCAGCCUUCGGUGGCGUGAUAGCGCCAACGUUCUGAACUAUGACACGUAAAACGCGUGCUCCGUUGAAUGGAGUUUAUCAUC [A3U G25U C27U C36A C87U C105G C118U G152C]	≤ -4.2
GGAUCUUCUCGAUCUAACAAAAAAGACAAAUCUGCCACAAAGCUUGAGAACAUCUUCGGAUACAGAGGCGGCAGCCUUCGGUGGCGCGAUAGCGCCAACGUUCUCAACUAUGACACACAAAACGCGUGCUCCGUUGAAUGGAGUUUAUCAUG [G50A G62A G117A]	-1.7
GGAUCUUCUCGAUUUAACAAAAAAGACUAAUCUGCCACAAAGCUUGAGAGGAUCUUCGGAUGCAGAGGCGGCAGCCUUCGGUGGCGCGAUAGCGCCGACGUUCUCAACUAUGACACGCAAAACGCGUGCUCCGUUGAAUGGAGUUUAUCAUG [C14U A28U C51G A97G]	≤ -4.2
GGAUCUUCUCGAUCUAACAAAAAAGUCAAAUCUGCCACAAAGCUUGAGUGCAUCUUCGGAUGCAGAGGCGGCAGCCUUCGGUGGCGAGAUAGCGCCAACGUUCUCAACUAUGACACGCAAAACGCGUGCUCCGGUGAAUGGAGUUUAUCAUG [A26U A49U C87A U134G]	≤ -4.2
GGAUCUUCUCGAUCUAACAAAAAAGACAAAUCUGCCACAAAGCUUGAGAGCAUCUUCGGAUGCAGAGGCGGCAGCUUUCGGUGGCGCGAUAGAGCCAACGUUCUCAACUAUGACACGCAAAACGCGUGCUCCGUUGAAUGGAGUUUAUCAUG [C76U C93A]	-2.34
GGAUCUUCUCGAUCUAACAAAAAAGACAAAUCUGCCACAAAGCUGGAGAGCAUCUUCGGAUGCAGAGUCGGCAGCCUUCGGUGGCGCGAUAGCGCCAACGUUCUCAACUAUGACACGCAAAACGCGUGCUCCGUUGAAUGGAGUUUAUCAUG [U45G G68U]	≤ -4.2
GGAUCUUCUCGAUCUAACAAAAAAGACAAAUCUGCCACAAAGCUUGAGAGCAUCUUCGGAUGCAGAGAGGGCAGCCUUCAGUGGCGCGAUAGCGCCAACGUUCGCAACUAUGACACGCAAAACGCGUGCUCCGUUGAAUGGAGUUUAUCAUG [G68A C69G G80A U104G]	≤ -4.2
GGAUCUUCUCGAUCUAACAAAAAAGACAAAUCUGCCACAAAGCUUGAGAGCAUCUUCGGAUGCAGAGGCGGCAGCCUUCGGUGGAGCGAUAGCGCCAACGUUCUCAACUAUGACACGCAAAACGCGUGCUCCGUUGAAUGGAGUUUAUCAUU [C85A G152U]	-3.5
GGAUCUUCUCGAUCUAACAAAAAAGACAAAUCUGCCACAAAGCUUGAGAGCAUCUUCGGAUGCAGAGGCGGCAGCCUUCGGUGGCGCGAUAGCGUCAACGUUCUCAACUAUGACAAGCAAAACGCGUGGUCCGUUGAAUGGAGUUUAGCAUG [C95U C116A C129G U148G]	≤ -4.2

Variant	polymerase ribozyme fitness (log ratio)
GGAUCUUCUCGAACUAAGAAAAAAGACAAAUCUGCCACAAAGCUUGAGAGCAUCUUCGGAUGCAGAGGCGGCAGCCUUCGGUGGCGCGAUAGCGCCAACGUUCUCAACUAUGACACGCAAAACGCGUGCUCCGUUGAAUGGAGUUUAUCAUG [U13A C18G]	-0.831
GGAUCUUCUCGAUCUAACAAAAUAGACAAAUCUGCCACAAAGCUUGAGAACAUCUUCGGCUGCAGUGGCGGCAGCCUUCGGUGGUGCGAUAGCGGCAACGUUCUCAACUAUGACACGCAAACCGCGUGCUCCGUUGAAUGGAGUUUAUCAUG [A23U G50A A60C A66U C85U C95G A122C]	≤ -4.2
GGAUCUUCUCGAUCUAACAAAAAAGACAAAUCUGCCACAAAGCGUGAGAGCAUCUACGGAUGCAGAGGCGGCAGCCUUAGGUGGCGCGAUAGCGCCAACGUUCUCAACUAUGACACGCAAAACUCGUGCUCCGUUGAAUGGAGUUUAUCAUG [U44G U56A C79A G124U]	≤ -4.2
GGAGCUUCUCGAUCUAACAAAAAAGACAAAUCUGCCACAAAGCUUGAGAGCAUCUGCGGAUGCAGAGGCGGCAGCCUUCGGUGGAGCGAUAGCGCCAACGUUCUCAACUAUGACACGCAAAACGCGUGCUCCGUUGAAUGCAGUUUAUCAUG [U4G U56G C85A G141C]	-2.61
GGAUCUUCUCGAUCUAACAAAAAAGACAAAUCUGCCACAAAGCUUGAGAGCAUCUUCGGUUGCAGAGGCGGCAGCCUUCGGUGGCGCGAUAGCGCCAAUGUUCUCAACUAUGACACGUAAAACGCGUGCUCCGUUGAAUGGAGUUUAUCAUG [A60U C99U C118U]	-2.07
GGAUCUUCUCGAUCUAACAAAAAAGACAAAUCUGCCACACCGCUUGAGCGCAUCUUCGGAUGCAGAGGCGGCAGCCUUCGGUGGCGCGAUUGCGCCAACGUUCUCAACUAUGACACGCAAAACGCGUGCUCCGUUGAAUGGAGUUUAUCAUG [A40C A41C A49C A91U]	≤ -4.2
GGAUCUUCUCGAUCUAACAAAAAAGACAAAUCUGGCACAAAGCUUGAGAGCAUCUUCGGAUGCAGAGGCGGCAGCCUUCGGUGGGGCGAUAGCGCCAACGUUCUCAACUAUGACACGCAAAACGCGUGCUCCGAUAAAUGGAGUUUAUCAUG [C35G C85G U134A G136A]	≤ -4.2
GGAUCUUCUCGAUCUAACAAAAAAGACAAAUCUGCCACAAAGGUUGAGAGCAUCUUCGGAUGCAGAGGCGGCAGCCUUCGGUUGCGCGAUAGCGCCUACGUUCCCAACUAUGACAUGCAAAACGCGUGCUCCGUUGCAUGGAGUUUAUCAUG [C43G G83U A97U U104C C116U A137C]	≤ -4.2
GGAUCUGCUCGAUCUAACAAAAAAGACAAAUCUGCCACAAAGCUUGAGAGCAUCUUCGGAUGCAGAGGCGGCAGCCUUCGGUGGUGCGAUAGCGCCAACGUUCUCAACUAUGACACGCAAAACGCGUGCUCCGUUGAAUGGAGUUUAUCAUG [U7G C85U]	-2.79
GGAUCAUCUCGAUCUAACAAAAAAGACAAAUCUGCCACAAAGCUUGAGAGCAUCUUCUGAAGCAGGGGCGGCAGCCUUCGGCGGCGCGAUAGCGCCAACGUUCUCAACUAUGACACGCAAAACGCGUGCUCCGUUGAACGGAGUUUAUCAUA [U6A G58U U61A A66G U82C U139C G152A]	≤ -4.2
GGAUCUUCUCGAUCUAACAAAAAAGACAAAUCUGCCACAAAGCUUGAGAGCAUCUUCGGAUGCAGAGGCGGCAGGCUUCGGUGGUGAGAUAGCGCCAACGUUCUCAACUAUGGCACGCAAAACGCGUGCUCCGUUGAAUGGAGUUUAUCAUG [C75G C85U C87A A113G]	≤ -4.2
GGAUCUUCUCGAUCUAACAAAAAAGACAAAUCUGCCACAUAGCUUGAGAGCAUCUUCGGAUGCAGAGGCGGCAGCCUUCGGUGGCACGAUAGCGCCAACGUUCUCAACUAUGACACGCAAAACGCGUGCUCCGUUGAAUGAAGUUUAUCAUG [A40U G86A G141A]	-1.06
GGAUCUUCUCGAUCUAACAUAAAAGACAAAUCUGCCACAAAGCUUGAGAGCAUCAUCGGAUGCAGAGGCGGCAGCCUUCGGUGGCGCGAUAGCGCCAACGUUCUCAACUAUGACACGCAAAACGCGUGCUCCGUUGAAUGGAGUUUCUCAUG [A20U U55A A147C]	-2.31
GGAUCUUCUCGAUCUAACAAAAUAGACAAAUCUGCCACAAAGCAAGAGAGCAUCUUCGGAUGCAGUGGCGGCAGCCUUCGGUGGCGCGAUAGCGUCAACGUUCUCAACUAUGACACGCAGAACGCGUGCUCCGUUGAAUGGAGUUUAUCAUG [A23U U44A U45A A66U C95U A120G]	≤ -4.2
GGAUCUUCUCGAUCUAACAAAAAAGACAAAUCUGCCACAAAGCUUGAGAGCAUCUUCGGAUGCAGAGGCGGCAGCCUUCGGUGGCGUGAUAGCGCCAACGUUCUCAACCAUGACACGCAAAACGCGUGCUCCGUUGAAUGGAGUUUAUCAUG [C87U U109C]	-3.46
GGAUCUUCUCGUUCUAACAAAAAAGACAAAUCUGCCACAAAGCUUGAGAGCAUCUUCGGAUGCAGAGGCGGCAGCCUUCGGUGUCGCGAUAGCGCCAACGUUCUCAACUAUGACACGCAAAACGCGUGCUCCGUUGAAUGGAGUUUAUCAUG [A12U G84U]	-1.97
GGAUCUUCUCGAUCUAACAAAAAAGAUAAAUCUGCCACAAAGCUUGAGAGCAUCUUCCGAUGCAGAGGCGGCAGCCUUCGGUGGCGAGAUAGCGCCAACGUUCUCAUCUAUGACACGCAAAACGCGUGCUCCGUUGAAUGGAGUUUAUCAUG [C27U G58C C87A A107U]	≤ -4.2
GGAUAUUCUCGAGCUAACAAAAAAGACAAAUCUGCCACAAAGCUUGAGAGCAUCUUCGGAUGCAGAGGCGGCAGCCUUCGUUGGCGCGAUACCGCCAACGUUCUCAACUAUGACACGCAAAACGCGUGCUCCGUUGAAUGGAGUGUAUCAUG [C5A U13G G81U G92C U145G]	-2.12
GGAUCUUCUCGAGCUAACAAAAAAGACAAAUCUGCCACAAAGCUUGAGAGCAUCUUCGGAUGCAGAGGCGGCAGCCGUCGGUGGCGCGAUAGCGCCAACGUUCUCAACUAUGACACGCAAAACGCGUGCUCCGUUGAAUGGAGUGUAUCAGG [U13G U77G U145G U151G]	≤ -4.2
